According to patent US20100322931A1 (AbbVie / Abbott, published 2010):

Target: T1, VEGF (R&D systems, Minneapolis, Minn.) (UniProt P15692-4 27-191, limits assumed)
T1 construct: Soluble analyte in the BIAcore assay; also called vascular endothelial growth factor; VEGFA
Test: SPR (BIAcore 2000/3000), antibody captured on anti-human Fc, VEGF as analyte, 1:1 Langmuir fit; variant corresponding to SEQ ID NO:82, the tightest of the variants
Method: RL was kept low to minimize avidity due to the dimeric nature of VEGF. No capture of the antibody was made on the reference surface to serve as a negative control. Subsequently, VEGF was injected to all flow cells at a flow rate of 50 μL/min for two minutes to monitor association followed by a 25-minute flow of HBS-P running buffer (10 mM HEPES, 150 mM sodium chloride, 0.005% P-20, pH 7.4) to monitor the dissociation phase. At each cycle, VEGF, in 6 different concentrations of VEGF ranging between 0 nM and 512 nM and at four-fold increments, was injected over the surface. […] Binding data were fit to the 1:1 Langmuir model to extract binding constants from the BIAevaluate software. Double referencing was applied in each analysis to eliminate background responses from the reference surface and buffer only control. All the binding kinetics data were analyzed at least three separate determinations.

T1 sequence (P15692 other isoform, or with tags, fused parts or gaps limits assumed): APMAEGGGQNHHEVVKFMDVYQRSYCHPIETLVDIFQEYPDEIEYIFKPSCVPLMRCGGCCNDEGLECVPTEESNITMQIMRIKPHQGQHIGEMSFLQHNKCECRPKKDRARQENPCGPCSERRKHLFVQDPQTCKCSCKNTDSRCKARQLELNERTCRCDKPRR

B1: bevacizumab variant corresponding to SEQ ID NO:82 (antibody, V domains shown)
VH: EVQLVESGGGLVQPGGSLRLSCAASGYTFTFYGMNWVRQAPGKGLEWVGWINTYTGEPTYAADFKRRFTFSLDTSKSTAYLQMNSLRAEDTAVYYCAKYPDYDGGSHWYFDVWGQGTLVTVSS
VL: DIQMTQSPSSLSASVGDRVTITCSASQDISNYLNWYQQKPGKAPKVLIYFTSSLHSGVPSRFSGSGSGTDFTLTISSLQPEDFATYYCQQYSTVPWTFGQGTKVEIKR
notes: Variant VH cloned with the unmodified VL into a human IgG1-containing plasmid and expressed in 293T/17 cells
  Kd: 0.08 nM
